{"source": "IntAct's records for PubMed 24510904", "parents": {"B1": {"name": "Ras-related protein Rab-7L1 (Homo sapiens), O14966 (parent)", "chain": "MGSRDHLFKVLVVGDAAVGKTSLVQRYSQDSFSKHYKSTVGVDFALKVLQWSDYEIVRLQLWDIAGQERFTSMTRLYYRDASACVIMFDVTNATTFSNSQRWKQDLDSKLTLPNGEPVPCLLLANKCDLSPWAVSRDQIDRFSKENGFTGWTETSVKENKNINEAMRVLIEKMMRNSTEDIMSLSTQGDYINLQTKSSSWSCC"}, "B2": {"name": "BAG family molecular chaperone regulator 5 (Homo sapiens), Q9UL15 (parent)", "chain": "MDMGNQHPSISRLQEIQKEVKSVEQQVIGFSGLSDDKNYKKLERILTKQLFEIDSVDTEGKGDIQQARKRAAQETERLLKELEQNANHPHRIEIQNIFEEAQSLVREKIVPFYNGGNCVTDEFEEGIQDIILRLTHVKTGGKISLRKARYHTLTKICAVQEIIEDCMKKQPSLPLSEDAHPSVAKINFVMCEVNKARGVLIALLMGVNNNETCRHLSCVLSGLIADLDALDVCGRTEIRNYRREVVEDINKLLKYLDLEEEADTTKAFDLRQNHSILKIEKVLKRMREIKNELLQAQNPSELYLSSKTELQGLIGQLDEVSLEKNPCIREARRRAVIEVQTLITYIDLKEALEKRKLFACEEHPSHKAVWNVLGNLSEIQGEVLSFDGNRTDKNYIRLEELLTKQLLALDAVDPQGEEKCKAARKQAVRLAQNILSYLDLKSDEWEY"}}}
{"variants_of": "B1", "settings": "with lrrk2_human LRRK2, Q5S007"}
{"variant": "T21N", "effect of a mutation on the interaction": "increasing interaction"}
{"variant": "Q67L", "effect of a mutation on the interaction": "increasing interaction"}
{"variants_of": "B1", "settings": "with lrrk2_human LRRK2, Q5S007", "remark": "another data set of the same source"}
{"variant": "Q67L", "effect of a mutation on the interaction": "disrupting interaction"}
{"variants_of": "B2", "settings": "with lrrk2_human LRRK2, Q5S007"}
{"variant": "D54A;R68A;D228A;R242A;D318A;R332A;D410A;R424A", "effect of a mutation on the interaction": "decreasing interaction"}
